In doi:10.1101/2025.11.18.25340499 (medRxiv, 2025):
One block for each binder: values may come before it.

Key:
MuSK Bait [1] = molecular target: T1, MuSK Bait (Homo sapiens (species of MuSK not …, UniProt O15146)); test: SPR
MuSK Bait [2] = molecular target: T1, MuSK Bait; test: AlphaScreen or HTRF

binding result (MuSK Bait [1]): binds
B1: 13-3B5 (antibody, V domains shown)
VH: QVQLVQSGAVVAKPGASVQVSCKTSGYTFTGQYLHWVRQAPGQGLEWIGWINPSSGVTKFAEKFEGRATMTRDTSITTAYIDLRSLRSDDTATYYCATLSLGVYYVGMVAWGQGTLVTVSS
VL: SYELTQPPSVSVSPGQTATITCSGDGLAQQHVYWFQQRPGQAPLLIIYKDIERPSGIPERFSGSSSGTTAMLTISGVQAEDEADYYCQSGDRTATSVLFGGGTKMTVL

binding result (MuSK Bait [2]): binds
B2: MuSK1B (antibody, V domains shown)
VH: EVQLVEWGAGLLKPSETLSLTCAVYGGSFSGDYWWTWIRQPPGKGLEWIGEIDHTGNTNYNPSLKSRLTLSVDMSKNHFSLKLTSVTAADTALYFCARQEGLGYYDSWGQGTLVTVSS
VL: SYELTQSPSVSVSPGQTANITCSGDKLGDRYASWYQQKPAQSPVLVIYQDDRRPSGIPERFSGSNSGNTATLTISGTQGMDEADYYCQAWDGTTVFGGGTKLTVL

binding result (MuSK Bait [2]): binds
B3: 11-3F6 (antibody, V domains shown)
VH: EVQLVESGGGLVKPGGSLRLSCAASGFTFSSYTMDWVRQAPGKGLEWVSSIGSNGDYIYYADSVRGRFTISRDNAKNSLYLQMNSLRPDDTADYYCARGQLAVAGTHFDYWGRGSLVTVSS
VL: DIQMTQSPSSLSASVGDRVTISCRASQKVNKYVNWYQQTPGKAPRLLIYAASTLQSGVPSRFSGSGSGANFTLTISGLQPEDFAIYFCQQSYSPLCTFGQGTKLEIK

binding result (MuSK Bait [2]): binds
B4: MuSK1A (antibody, V domains shown)
VH: QVQLVQSGAEVKKPGASVKVSCKTSGYTFNNYDINWVRQAAGQGLEWMGWMNPYSGNTGYAQKFQGRVTMTRNISITTVYMELSSLRSEDTAVYYCAREVRGDTGYGGGSDYWGQGTLVTVSS
VL: SYELTQPPSVSLSPGQTATITCSGDKLDDNYVCWYQQKPGQSPVLVIYQDTMRPSGIPERFSGSNSGNIATLTISGTQAVDEADYYCQAWDGSTVVFGGGTRLTVL
